The data set in a line: yeast display, Sf9 membrane polyspecificity reagent, FACS + sequencing; frameworks hold sequencing errors. In short, it runs like this:
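Polyreactivity labels are assigned by the sorting gate from which each nanobody was recovered. The gates were low and high (top ~1%), set on anti-HA fluorescence for expression and streptavidin fluorescence for reagent binding. Before sorting, galactose-induced (36–48 hours) yeast display cells were stained for 1 hour at 4 °C with 10% biotinylated, detergent-solubilized Sf9 membrane reagent.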
In the case of “PVQLVESGGGLVQAGGSLRLSCAACGYTFQVYAMGWYRQAPGKERELVASIRWRGGRTYYADSVKGRFTISRDNAKNTVYLKLNSLKPADTSVYYCAARQFVIYPTYYTYYYWGQGTQVTVSS”, the “polyreactivity (PSR sort gate)” value is “high polyreactivity”.
For “PVQLVESGGGLVQAGGSLRLSCAASGRTFLVYSMGWYRQAPGKERELVAAISNGGSTNYADSVKGRFTISRDNAKKTVYLQMNSLKPEDTALYDCATRIHKWYYYWGQGTQVTVSS” the value was “high polyreactivity”; for “PVQLVESGGGLVQAGGSLRLSCAASGSIFAVNALGWSRQAPGKERELVAAITSGGNTYYADSVKGRFTISRDNAKNTVYLQMNSLKPEDTAVYDCATVFSVQGWYFGMNYWGQGTQVTVSS”, “low polyreactivity”; for “PVQLVESGGGLVQAGGSLRLSCAASGSIFGYYAMGWYRQAPGKERELVAAISSSGASTYYADSVKGRFTISRDNAKNTVSLQMNSLKPEDTAVSYCIAARRYPTRGGYWGQGTQVTVSS”, “high polyreactivity”.
On to “PVQLVESGGGLVQAGGSLRLSCAASGSIFGYYAMGWYRQAPGKERELVAAITWSGDSTYYADSVKGRFTISRDNAKNTVYLQMNSLKPEDTAVYYCAARQFVHTRYFSFGYWGQGTQVTVSS”, for which the “polyreactivity (PSR sort gate)” value is “low polyreactivity”.
Take “PVQLVESGGGLVQAGGSLRLSCAASGSTFAYNDLGWYRQAPGKERELVADIRSGGNTNYADSVKGRFTISRDNAKNTVYLQMNSLKPEDTAVYYCATDGYRIDVFHPDYRYDYWGQGTQETVSS”: the “polyreactivity (PSR sort gate)” value is given as “low polyreactivity”.
On to “PVQLVESGGGLVQAGGSLRLSCSSSGRIFASNAMGWYRQPPGKDRELVAAIDQGGGSTYYADSVKGRFTISRDNAKITVYLQMNSLKPEDTAVYYCAADYITAYPRLYNYWGLGTQVTVSS”, for which the “polyreactivity (PSR sort gate)” value was “low polyreactivity”.
In the case of “QDHHVDSGGGLVQAGGILRLSCAASGSIIDYYPMGWYRQPPGKERELVARIRRRSSSTFYADSVKGRFTISRDNEKNTDYLQMNSLKPEDTAVYYCAADSYAWSTGGIFDYWGQGTQVTVSS”, the “polyreactivity (PSR sort gate)” value was “high polyreactivity”.
As for “QDHLVESGGGLVQAGGSLRLSCAASGFIFRGNAMGWYRQPPGKERELVAAISRRGGTTYYADCVKGRFTISRDNAKNTDYLQMNSLKPEDTAVYYCAAYSPLSSGMDSWGQGTQVTVSS”, the “polyreactivity (PSR sort gate)” value is reported as “high polyreactivity”.
Turning to “QDHLVESGGGLVQAGGSLRLSCAASGSIFGLYAMGWYRQSPGKERELVAAISFSGDTYYADSVKGRFTISRDNAKNTVYLQMNSLKPEDTAVYYCAAEDWYEYDYWGQGTQVTVSS”, the “polyreactivity (PSR sort gate)” value is “high polyreactivity”.
For the sequence “QDHLVESGGGLVQAGGSLRLSCAASGSIFYRYAMGWYRQAPWKERELVAAISRSGGTTYYADSVKGRFTISRDNAKNTVYLQMNSLKPEDTAVYYCAARVFHPYSTDPYYYWGQGTQVTVSS”, the “polyreactivity (PSR sort gate)” value is reported as “high polyreactivity”.
On to “QDHLVESGGGLVQAGGSLRLSCAASGSTFGKNTMGWYRQAPGKERELVAAISRGVSTYYADSVKGSFTISRDNAKNTVYLQMNSLKPEDTAVYYCAAQEAYRWYGYYYWGQGTQVTVSS”, for which the “polyreactivity (PSR sort gate)” value was “high polyreactivity”.
For the sequence “QDHLVESGGGLVQAGGSLRLTCAASGSIFISYAMGWYRQAPGKERELVAAISIRGTRTYYADSVKGRFTISRDNAKNTVSLQMNSLKPEDTAVYFCAADASYTEGMDYWGQGTQVTVSS”, the “polyreactivity (PSR sort gate)” value is recorded as “high polyreactivity”.
As for “QDHLVESGRGLVQAGGSLRLSCAASGSIFPSYAMVWNRQAPGKERDLVDSITTSGGSTYYADSVKGRFTISRDNAKNTVYLQMNSLKPEDTAVYYCNARRYYYSWGREGGYWGQGTQVTVSS”, the “polyreactivity (PSR sort gate)” value is recorded as “low polyreactivity”.
Under “QDKLVESGGALVQAGGSLRISCAASGNIFSYYAMGWNRQAPGKEMDLVAAISRRGTNTYYADSVKGRFTISRDKAKNTVYLQMNSLKPEDTAVYYCASYGPYQSSYHYDYWGQGTQVTVSS” stands “high polyreactivity”; under “QDLHVESGGGVVQAGGSLRVSCAASGRTFISYAMGWSRQAPGKERELVATITRDGRTNYADSVKGRFTFSRDNAKNTVYLQMNSLNAEDTAVYYCNADSRYRYDYWGQGSQVTVSS”, “low polyreactivity”; under “QDLLVESGGGLVQAGGRLRLSCAASGSTFRYYAMGWYRQAPGKERELVAAITNSCGSTNYADSVKGRFTISRDNAKNTVYLQMNSLKPEDTAVYYCNANTWRYFTMGYWGHGTQVTVSS”, “high polyreactivity”.
For the sequence “QDNLVESGGGLVQAGGSLRLICAASGSTNRSNAMGWYRQAPGKERELVAANSRTGGRTYYADSVKGRFTISRDNAKNTVYLQMKCLNQEDTAVYYCARADKRLEYSENYYWGQGTQVTVSS”, the “polyreactivity (PSR sort gate)” value was “high polyreactivity”.
Take “QDQHVESGGGLVQAGGSLRLICSASGSTNGLGWYRQAPGKERELVAVITWDTGGTYYADSVKGRFTISRDNAKNTVYLQMNSLKPEDTAVYYCAKDVGHGAGNLMGYWGQGTQVTVSS”: the “polyreactivity (PSR sort gate)” value is on record as “low polyreactivity”.
“QDQHVESGGGLVQAGGSLRLRCSASVRTYFDYDMGRYRQAPGKERELVAAISQSGGSTYYADSVKGRFTISRDNAKYTFYLVMNSLKPEDTGVYECNAYYGYGHRIYDYWGQGTQVTVSS”: the “polyreactivity (PSR sort gate)” value was “high polyreactivity”.
Turning to “QDQHVESGGGLVQAGGSLRLSCAASGFIFSQYAMGWYRQAPGKERELVAAISSGSTYADSVKGRFTISRDNAKNTVYLQMNSLKPEDTAVYYCAVDYHQAWPSADYWFEYDYWGQGTQVTVSS”, the “polyreactivity (PSR sort gate)” value is “low polyreactivity”.
For “QDQHVESGGGLVQAGGSLRLSCAASGSIFDVYTMGWYRQAPGKERELVAAINTGGGSTYYADSVKGRFTISRDKAKNTVYLQMNSLKPEDTAVYYCAASVYHYGPLYYWGQGTQVTVSS”, the “polyreactivity (PSR sort gate)” value is reported as “low polyreactivity”.
On to “QDQHVESGGGLVQAGGSLRLSCAASGSIFPWYTMGWYRQAPGKERELVASITKSGARTYYADSVKGRFTISRDNAKNTVYLEITSLKPEDTAVYYCAASLWQRAKVRYQYWGQGPQVTVSS”, for which the “polyreactivity (PSR sort gate)” value is listed as “high polyreactivity”.
Turning to “QDQHVESGGGLVQAGGSLRLSCAAYGSTFLYYAMGWFRQAPGKERELVAAITSGGSTYYADSVKGRFTISRDNPKNTVFLQMNRLKPEDTAVYYCTVFGYGYWGQGTQVTVSS”, the “polyreactivity (PSR sort gate)” value was “high polyreactivity”.
As for “QDQHVESGGGLVQAGGSLRLSFAASGRTFISYTKGWYRPAPGKERELVAAINFSGGITYYADSVKGRFTISHDNAMNTVYLQMNSLKPVDTAVYYCAADWRTRYDYWGQGTQVTVSS”, the “polyreactivity (PSR sort gate)” value is on record as “low polyreactivity”.
For the sequence “QDQHVESGGGLVQAGGSLRLSGAASGGTLWVNTMGWYRPAPGKERELVAAISRRGGSTYYADSVKGRFTISRDNAKNTVYLQMNSLKPEDTAVYYCAKGYSSHYWWAYDSWGQGTLVTVSS”, the “polyreactivity (PSR sort gate)” value was “high polyreactivity”.
In the case of “QDQHVESGGGLVQAGGSLRLSGADSGSIFLLYAMGCYRQAPGKERELVAAISTRDGSTYYADSVKGRFTISRDNAKNTVYLQMNSLKPEDTAVYYCATLYSYNYWGQGTQVTVSS”, the “polyreactivity (PSR sort gate)” value is reported as “high polyreactivity”.
As to “QDQHVESVGGLVQAGGSLRLSCAASGRTFYRYAMGWSRQAPGKEREFVAAISHGGSNTRYADSVKGRFTISRDNAKNTVYLQMKSLKPEDTAVYYCAARAYQHYNWGQGTQVTVSS”, the “polyreactivity (PSR sort gate)” value was “high polyreactivity”.
With “QDQHVESVGGLVQAGGSLRLSIAASVLILWQNAMGWYRQAPGKERELVARITWSGVSTDYADSVKGRFTISRDNAKNTVYFQMNSLKPEDTADYYWAADYNRYSYNYARYSLGQNDYWGQGTQVTVSS”, the “polyreactivity (PSR sort gate)” value was “low polyreactivity”.
As to “QDQIVESGGGLVQAGGSLRLSCAASGSTFQANAMGWYRQAPGKERELVAAISRSGGSTYYADSVKGRFTISRDNAKNTVYLQMNSLKPEDTAVFYCAADYEYSGYGYWGQGTQVTVSS”, the “polyreactivity (PSR sort gate)” value was “high polyreactivity”.
In the case of “QDQIVESGGGLVQAGGSLRLSCASYGSTFDRYAMGWYRQAQGKERELVAVITQSGSSTYYADSVKGRFTISRDNAKNTVYLQMKSLKPEDTAVYYCAARYQGSRGQEYYYWGQGTQVTVSS”, the “polyreactivity (PSR sort gate)” value is given as “high polyreactivity”.
Under “QDQIVESGGGLVQAGGSLRLSCSATGRTYVIYAMGWYRQAHGKERELVASIRRGGSTSYADSVKGRFTISRDNAKNTVYLQMKSLKPEDTAVYYCAAGAHRASSSGNGYWGQGSQVTVSS” stands “high polyreactivity”; under “QDQLEESGGGLVQAGGSLRLICAAYGSTFVLYDMGWYRQEPGKERELVADISYSGGSTYYEDSVKGRFTISRDNAKYTVYLLMKRLIPEDTAFYYCIAGVLVLLYAYLPSELEYWGQGTQVTVSS”, “low polyreactivity”; under “QDQLEESGGGLVQAGGSLRLSCAASGRMFNSYAMGWYRQAPGKERELVAAISFSGGSTYYADSVKGRFTISRDNAKNTVYLQMNSLKPEDTAVYYCNAVTAVDTAHDYWGQGTQVTVSS”, “high polyreactivity”.
Consider “QDQLEESGGGLVQAGGSLRLSCAASGRTFFHYAMGWYRQAPGKERELVAGISSGGRTTYADSVKGRFTISRDNAKNTVYLQMISLKPEDTAVYYCAASYIVWLTRGAPRKRFDYWGQGTQVTVSS”, for which the “polyreactivity (PSR sort gate)” value is given as “high polyreactivity”.
For “QDQLEESVGGLVQAGGSLRLSCAASGSTFSYYAMGWYRQATGKERELVAAISTLGSSTYYADSVKGRFTISRDNAKNTVNLQMNSLKPEDTAVYYCAVDQYKYDWFYDYYGYTYVYWGQGTQVTVSS”, the “polyreactivity (PSR sort gate)” value is reported as “high polyreactivity”.
With “QDQLGESGGGLVQAGGSLRLTCAASGFIFSNNAMGWYRPSPGKERELVAAISGSGVSTYYADSVKGRFTISRDNAKNTVYLQMNSLKPEDTAVYYCAASASLRHDYWGQGTQVTVSS”, the “polyreactivity (PSR sort gate)” value is “high polyreactivity”.
Take “QDQLLESGGGLVQAGGSLRLSCAASGSTFGANAMGWYRQAPGKEREFVAAISRSGLRTYYADSVKGRFTNSRDYAKNTVYIQMNSLKPEDTAVYYCSADCYWWTYTRYDYWGQGSQVTVSS”: the “polyreactivity (PSR sort gate)” value is listed as “low polyreactivity”.
Under “QDQLVDSGGGLVQAGGNLRLSCAASGRTFPPYSMGWDRQAPGKERELVAAISGSGASTYYADSEKGRFTISRDNAKNTVYLQMNCLKPEDSAVYYCARYRGYWGRYYGVDYGYWGQGTQVTVSS” stands “high polyreactivity”; under “QDQLVDSGGGLVQAGGSLRLICAASGRTYRKYAMGWYRQAPGKERELVADISWSGGSTYYANSVKGRFTISRDIAKNTVYLQMNSLKPEDTAVYYCAAVPVHTGSLYWGFTTGYDYWGQGTQVTVSS”, “low polyreactivity”; under “QDQLVDSGGGLVQAGGSLRLSCAASGRSFRNNPMGWYRQAPGKERELVAAITSSGASTYYADSVKGRFTISRDNAKNTVYLQMNSLKPEDTAVYSCAAATVRQFRSSLDYWGQGTQVTVSS”, “high polyreactivity”.
